Ends that are not written are not given here. * marks the point of attachment. Biotin = O=C1N[C@H]2[C@H](CS[C@H]2CCCCC(=O)*)N1
B1: CD5 C-terminal PL peptide AA49L, biotinylated (peptide)
peptide: Biotin-SMQPDNSSDSDYDLHGAQRL

Biological target: GST-AF6 PDZ domain fusion protein (af-6 protein AA985-1077; PDZ domain 1 of 1) (UniProt P08515 1-218 = GST)
Experiment: A/G assays

| Binder | binding result |
| --- | --- |
| B1 | no binding |

Biological target: T1, GST-NeDLG PDZ domain fusion protein (presynaptic protein sao102, neuroendocrine-dlg; PDZ domains 1-2 of 3) (UniProt P08515 1-218 = GST)
T1 construct: also called NeDLG1
Experiment: A/G assays

T1 sequence (P08515 1-218, tags or fused parts left off): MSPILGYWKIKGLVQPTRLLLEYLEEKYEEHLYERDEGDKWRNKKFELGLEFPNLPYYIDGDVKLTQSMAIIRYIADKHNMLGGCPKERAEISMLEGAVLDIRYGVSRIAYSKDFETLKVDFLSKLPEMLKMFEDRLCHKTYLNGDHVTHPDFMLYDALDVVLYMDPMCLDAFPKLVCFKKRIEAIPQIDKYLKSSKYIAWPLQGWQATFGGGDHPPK

| Binder | binding result |
| --- | --- |
| B1 | no binding |

Biological target: T2, GST-TAX43 PDZ domain fusion protein (human tax interaction protein 43 AA15-85; PDZ domain 1 of 1) (human, UniProt P08515 1-218 = GST)
T2 construct: also called TX 43
Experiment: A/G assays

T2 sequence (P08515 1-218, tags or fused parts left off): as above

| Binder | binding result |
| --- | --- |
| B1 | no binding |

Biological target: GST-NOS1 PDZ domain fusion protein (human neuronal nitric oxide synthase; PDZ domain 1 of 1) (human, UniProt P08515 1-218 = GST)
Experiment: A/G assays

Chain of GST-NOS1 PDZ domain fusion protein (human neuronal nitric oxide synthase; PDZ domain 1 of 1) (P08515 1-218, tags or fused parts left off): as above

| Binder | binding result |
| --- | --- |
| B1 | no binding |

Biological target: GST-PTN-4 PDZ domain fusion protein (protein-tyrosine phosphatase meg1 AA774-862; PDZ domain 1 of 1) (UniProt P08515 1-218 = GST)
Experiment: A/G assays

Chain of GST-PTN-4 PDZ domain fusion protein (protein-tyrosine phosphatase meg1 AA774-862; PDZ domain 1 of 1) (P08515 1-218, tags or fused parts left off): as above

| Binder | binding result |
| --- | --- |
| B1 | no binding |

Biological target: GST-DVL1 PDZ domain fusion protein (human dishevelled segment polarity protein homolog AA248-340); PDZ domain … (human, UniProt P08515 1-218 = GST)
Experiment: A/G assays

| Binder | binding result |
| --- | --- |
| B1 | no binding |

Biological target: T3, GST-KIAA0303 PDZ domain fusion protein (KIAA0303 AA652-742; PDZ domain 1 of 1) (UniProt P08515 1-218 = GST)
T3 construct: also called K303
Experiment: A/G assays

T3 sequence (P08515 1-218, tags or fused parts left off): as above

| Binder | binding result |
| --- | --- |
| B1 | no binding |

Biological target: T4, GST-KIAA0316 PDZ domain fusion protein (KIAA0316 AA197-284; PDZ domain 1 of 1) (UniProt P08515 1-218 = GST)
T4 construct: also called K316
Experiment: A/G assays

| Binder | binding result |
| --- | --- |
| B1 | no binding |

Biological target: GST-MPP1 PDZ domain fusion protein (55 Kd erythrocyte membrane protein AA101-186; PDZ domain 1 of 1) (UniProt P08515 1-218 = GST)
Experiment: A/G assays

Chain of GST-MPP1 PDZ domain fusion protein (55 Kd erythrocyte membrane protein AA101-186; PDZ domain 1 of 1) (P08515 1-218, tags or fused parts left off): as above

| Binder | binding result |
| --- | --- |
| B1 | no binding |

Biological target: GST-LIM PDZ domain fusion protein (Human LIM protein AA29-112; PDZ domain 1 of 1) (human, UniProt P08515 1-218 = GST)
Experiment: A/G assays

Chain of GST-LIM PDZ domain fusion protein (Human LIM protein AA29-112; PDZ domain 1 of 1) (P08515 1-218, tags or fused parts left off): as above

| Binder | binding result |
| --- | --- |
| B1 | no binding |

Biological target: GST-prIL16 PDZ domain fusion protein (putative interleukin 16 precursor AA170-383; PDZ domains 1-2 of 2) (UniProt P08515 1-218 = GST)
Experiment: A/G assays

Chain of GST-prIL16 PDZ domain fusion protein (putative interleukin 16 precursor AA170-383; PDZ domains 1-2 of 2) (P08515 1-218, tags or fused parts left off): as above

| Binder | binding result |
| --- | --- |
| B1 | no binding |

Biological target: T5, GST-TAX2 PDZ domain fusion protein (human tax interaction protein 2 AA54-140; PDZ domain 1 of 1) (human, UniProt P08515 1-218 = GST)
T5 construct: also called TX 2
Experiment: A/G assays

| Binder | binding result |
| --- | --- |
| B1 | no binding |

Biological target: T6, GST-CBP PDZ domain fusion protein (Cytohesin binding protein HE AA85-175; PDZ domain 1 of 1) (UniProt P08515 1-218 = GST)
T6 construct: also called Prot
Experiment: A/G assays

T6 sequence (P08515 1-218, tags or fused parts left off): as above

| Binder | binding result |
| --- | --- |
| B1 | no binding |

Biological target: T7, GST-TAX33 PDZ domain fusion protein (tax interaction protein 33 AA73-162; PDZ domain 1 of 1) (UniProt P08515 1-218 = GST)
T7 construct: also called TX33
Experiment: A/G assays

T7 sequence (P08515 1-218, tags or fused parts left off): as above

| Binder | binding result |
| --- | --- |
| B1 | no binding |

Biological target: T8, GST-RGS12 PDZ domain fusion protein (human regulator of G-protein signalling 12 AA35-103; PDZ domain 1 of 1) (human, UniProt P08515 1-218 = GST)
T8 construct: also called RSG12
Experiment: A/G assays

T8 sequence (P08515 1-218, tags or fused parts left off): as above

| Binder | binding result |
| --- | --- |
| B1 | no binding |

Biological target: T9, GST-CASK PDZ domain fusion protein (CASK AA495-584; PDZ domain 1 of 1) (mouse, UniProt P08515 1-218 = GST)
T9 construct: also called mCASK
Experiment: A/G assays

T9 sequence (P08515 1-218, tags or fused parts left off): as above

| Binder | binding result |
| --- | --- |
| B1 | no binding |

Biological target: T10, GST-MPP2 PDZ domain fusion protein (maguk p55 subfamily member 2 (DLG2) AA185-273; PDZ domain 1 of 1) (UniProt P08515 1-218 = GST)
T10 construct: also called MMP2
Experiment: A/G assays

T10 sequence (P08515 1-218, tags or fused parts left off): as above

| Binder | binding result |
| --- | --- |
| B1 | no binding |

Biological target: T11, GST-41.8 kD PDZ domain fusion protein (hypothetical 41.8 kD protein AA4-85; PDZ domain 1 of 1) (UniProt P08515 1-218 = GST)
T11 construct: also called hypoth
Experiment: A/G assays

T11 sequence (P08515 1-218, tags or fused parts left off): as above

| Binder | binding result |
| --- | --- |
| B1 | no binding |

Biological target: GST-MINT3 PDZ domain fusion protein (human MINT3 AA11-52; PDZ domain 1 of 1) (human, UniProt P08515 1-218 = GST)
Experiment: A/G assays

Chain of GST-MINT3 PDZ domain fusion protein (human MINT3 AA11-52; PDZ domain 1 of 1) (P08515 1-218, tags or fused parts left off): as above

| Binder | binding result |
| --- | --- |
| B1 | no binding |

Biological target: GST-LIMK2 PDZ domain fusion protein (human LIM domain kinase 2 AA185-275; PDZ domain 1 of 1) (human, UniProt P08515 1-218 = GST)
Experiment: A/G assays

Chain of GST-LIMK2 PDZ domain fusion protein (human LIM domain kinase 2 AA185-275; PDZ domain 1 of 1) (P08515 1-218, tags or fused parts left off): as above

| Binder | binding result |
| --- | --- |
| B1 | no binding |

Biological target: GST-PSD95 PDZ domain fusion protein (human post-synaptic density protein 95 AA387-724; PDZ domains 1-3 of 3) (human, UniProt P08515 1-218 = GST)
Experiment: A/G assays

Chain of GST-PSD95 PDZ domain fusion protein (human post-synaptic density protein 95 AA387-724; PDZ domains 1-3 of 3) (P08515 1-218, tags or fused parts left off): as above

| Binder | binding result |
| --- | --- |
| B1 | no binding |

Biological target: T12, GST-TAX40 PDZ domain fusion protein (human tax interaction protein 40 AA35-137; PDZ domain 1 of 1) (human, UniProt P08515 1-218 = GST)
T12 construct: also called TX 40
Experiment: A/G assays

T12 sequence (P08515 1-218, tags or fused parts left off): as above

| Binder | binding result |
| --- | --- |
| B1 | no binding |

Biological target: T13, GST-KIAA0559 PDZ domain fusion protein (KIAA0559 AA766-870; PDZ1 of 1) (UniProt P08515 1-218 = GST)
T13 construct: also called K559
Experiment: A/G assays

T13 sequence (P08515 1-218, tags or fused parts left off): as above

| Binder | binding result |
| --- | --- |
| B1 | no binding |

Biological target: GST-TIAM1 PDZ domain fusion protein (T-lymphoma invasion and metastasis inducing protein 1 AA1001-1088); PDZ 1 … (UniProt P08515 1-218 = GST)
Experiment: A/G assays

Chain of GST-TIAM1 PDZ domain fusion protein (T-lymphoma invasion and metastasis inducing protein 1 AA1001-1088); PDZ 1 … (P08515 1-218, tags or fused parts left off): as above

| Binder | binding result |
| --- | --- |
| B1 | no binding |

Biological target: T14, GST-SYN1a PDZ domain fusion protein (alpha1-syntrophin AA96-189; PDZ domain 1 of 1) (UniProt P08515 1-218 = GST)
T14 construct: also called SYN 1 alpha; SYNTR 1 alpha
Experiment: A/G assays

T14 sequence (P08515 1-218, tags or fused parts left off): as above

| Binder | binding result |
| --- | --- |
| B1 | no binding |

Reference: patent publication US20090149339A1 (published 2009)
